# Reference: patent US20240025993A1, “CD19 BINDING MOLECULES AND USES THEREOF” (NOVARTIS AG, priority 2020, published 2024)
# Columns and labels:
# [1] = Differential scanning calorimetry, melting temperature of Fc modified anti-CD3 antibodies (Example 35); assay type: physicochemical; conditions: DSC, 1 mg/ml in PBS pH 7.4, anti-CD3 IgG1 Fc variants
# Experimental: Calorimetric measurements were carried out on a differential scanning micro calorimeter (Nano DSC, TA instruments). The cell volume was 0.5 ml and the heating rate was 1° C./min. All proteins were used at a concentration of 1 mg/m in PBS (pH 7.4). The molar heat capacity of each protein was estimated by comparison with duplicate samples containing identical buffer from which the protein had been omitted. The partial molar heat capacities and melting curves were analyzed using standard procedure. Thermograms were baseline corrected and concentration normalized.
# [2] = Aggregation propensity (% HMW) by analytical SEC of IgG1 anti-CD3 antibody and Fc variants (Example 35); assay type: physicochemical; conditions: PBS pH 7.4, anti-CD3 antibodies
# Experimental: Size exclusion chromatography measurements were performed to evaluate the aggregation propensity (% HMW) of IgG1 antibody and Fc modified derivatives. The produced and purified anti CD3 antibodies were applied to an analytical size exclusion chromatography column (SEC 200, GE Healthcare), equilibrated with PBS buffer pH 7.4.
# [3] = test system: Jurkat NFAT luciferized (JNL) cells with THP-1 cells; assay: Anti-CD3 NFAT signalling assay, JNL + THP-1 cells (Example 36); assay type: cell-based, human
# Experimental: Jurkat reporter gene assay (RGA) for the nuclear factor of activated T-cells (NFAT) pathway was performed using Jurkat NFAT luciferized (JNL) cells and THP-1 cells (ATCC, TIB202). THP-1 cells express FcγRI, FcγRII, and FcγRIII. Cells were co-incubated for 6 hours at 37° C., 5% CO2 at a 5:1 effector to tumor ratio with each sample at the various concentrations depicted. An equal volume of ONE-Glo™ reagent (Promega, E6110) was added to the culture volume. Plate was shaken for 2 minutes, then incubated for an additional 8 minutes protected from light. For JNL+ THP+IFNg experiment, THP-1 cells were pre-treated with 100 u/mL IFNg for 48 hours at 37° C., 5% CO2 before co-culture. IFNg stimulation increases FcγRI expression. Luciferase activity was quantitated on the EnVision plate reader (PerkinElmer). Data was analyzed and fit to a 5 parameter-logistic curve using GraphPad Prism.
# human FcγR1A = human FcγR1A (Homo sapiens, UniProt P12314); assay: SPR binding of Fc modified anti-CD3 IgG1 antibodies (Example 34); conditions: anti-CD3 IgG1 antibody immobilized
# human FcγR1A, sequence (P12314 16-374): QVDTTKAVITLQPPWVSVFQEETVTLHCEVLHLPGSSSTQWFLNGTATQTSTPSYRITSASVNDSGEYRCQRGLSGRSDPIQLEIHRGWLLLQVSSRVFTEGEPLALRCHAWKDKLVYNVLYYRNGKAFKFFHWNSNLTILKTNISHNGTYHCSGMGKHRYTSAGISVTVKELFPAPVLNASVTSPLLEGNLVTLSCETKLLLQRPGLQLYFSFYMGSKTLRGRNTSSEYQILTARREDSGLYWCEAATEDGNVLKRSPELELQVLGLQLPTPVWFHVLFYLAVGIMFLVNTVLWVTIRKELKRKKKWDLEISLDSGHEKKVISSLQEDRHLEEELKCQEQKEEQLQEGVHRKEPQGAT
# Experimental: Surface plasmon resonance (SPR) experiments were performed to analyze the interaction of human activating receptors FcγR1A, FcγR3A (V158) and human C1q with IgG1 WT and antibody-Fc variants. Binding kinetics and their relative binding affinities were explored. The binding affinity is an important characteristic of an interaction between an antibody and an antigen. The equilibrium dissociation constant (KD) defines how strong the interaction is and therefore how much antibody-antigen complex is formed at equilibrium.
# The knowledge of the antibody characteristics is not only essential during selection of the best therapeutic antibody candidate, but also important to understand the in vivo behavior and potentially predict cellular immune responses. […] Binding to human C1q was evaluated. […] SPR measurements were measured on a Biacore T200 (GE-Healthcare Life Sciences) controlled by Biacore T200 control software version 2.0.1. […]
# The antibodies were covalently immobilized on a CM5 sensor chip whereas Fc gamma receptors or human C1q served as analytes in solution (FIG. 38). […] Zero concentration samples (blank runs) were measured for both methods to allow double-referencing during data evaluation.
# Data were evaluated using the Biacore T200 evaluation software. […] In addition, the maximum response reached during the experiment was monitored. […]
# [4] = test system: T cells co-cultured with OCI-LY-19, Karpas422 or Toledo target cells; assay: TBM and BBM mediated T cell proliferation (Example 20); assay type: cell-based, human; conditions: in the presence of OCI-LY-19 and Toledo cells; E:T 1:3, 96 hrs
# Experimental: Briefly, OCI-LY-19, Karpas422, and Toledo target cells stably expressing firefly luciferase were plated in a 96 well plate in T Cell Media (TCM) (RPMI-1640, ThermoFisher Scientific, Cat #11875-085), 10% FBS (Seradigm, Cat #1500-500), 1% L-Glutamine (Thermo Fisher Scientific, Cat #25830-081), 1% Non Essential Amino Acids (Thermo Fisher Scientific, Cat #11140-050),1% Pen/Strep (Thermo Fisher Scientific, Cat #15070063), 1% HEPES (Thermo Fisher Scientific, Cat #15630080), Sodium Pyruvate (Thermo Fisher Scientific, Cat #11360-070), 0.1% Beta-mercaptoethanol (Thermo Fisher Scientific, Cat #21985-023)]. PBMCs previously isolated and cryopreserved from 2 Leukopak donors were thawed and Pan T cells were isolated (as described earlier). Isolated T cells were labelled with 5 μM Cell Trace Violet (CTV) (Thermo Fisher Scientific, Cat #C34557) following the manufacturer's protocol and were co-cultured with target cells at an E:T ratio of 1:3. A dilution series of CD3med TSP1, CD3hi TSP1, CD3hi BSP1, CD3hi TSP1C, and blinatumomab ranging from 2.5 nM-0.0006 nM was added to cells and the plates were incubated in a 5% CO2, 37° C. incubator for 96 hrs. […]
# [5] = THP-1 cells preincubated with IFNg (100 u/mL, 48 hours)
substance,measurement,setting,value
DAPA-IgG1: anti-CD3 IgG1 with D265A/P329A; previously described silencing motif [reference compound],Melting temperature (Tm) of CH2 domain,[1],65 °C
same,(%) higher molecular weight,[2],3.9%
same,NFAT activity (T-cell activation),[3]; [5],some activity remaining
same,NFAT activity (T-cell activation),"[3]; without IFNg, JNL:THP-1 5:1, 6 hours",comparable T-cell activation with the exception of DAPA
LALAGA-IgG1: anti-CD3 IgG1 with L234A/L235A/G237A,Maximum response at 100 nM hFcgammaRIA (RU),human FcγR1A,15 RU
same,Melting temperature (Tm) of CH2 domain,[1],70 °C
same,(%) higher molecular weight,[2],2.9%
LALAPG-IgG1: anti-CD3 IgG1 with L234A/L235A/P329G,Maximum response at 100 nM hFcgammaRIA (RU),human FcγR1A,18 RU
same,Melting temperature (Tm) of CH2 domain,[1],70 °C
same,(%) higher molecular weight,[2],4.2%
"blinatumomab: bispecific T cell engager, or BiTE, that binds to both CD19 and CD3 but lacks an Fc domain [reference compound]",T cell proliferation (% proliferated CD3+ T cells),[4],most potent T cell proliferation
LALAPA-IgG1: anti-CD3 IgG1 with L234A/L235A/P329A,Melting temperature (Tm) of CH2 domain,[1],70 °C
same,(%) higher molecular weight,[2],1.8%
same,NFAT activity (T-cell activation),[3]; [5],some activity remaining
